Experiments:
[1] = biological target: HLA-A*30:01; experiment: IEDB peptide-MHC binding, purified MHC/competitive/radioactivity; filed as Kd, often an IC50 or EC50 that approximates it; ≥ and ≤ were set here for values at or beyond the usual limits of such assays
[2] = biological target: HLA-B*51:01; experiment: as above
[3] = biological target: HLA-A*30:02; experiment: as above
[4] = biological target: HLA-A*32:01; experiment: as above
[5] = biological target: HLA-B*15:01; experiment: IEDB peptide-MHC binding, purified MHC/direct/fluorescence; filed as Kd, often an IC50 or EC50 that approximates it; ≥ and ≤ were set here for values at or beyond the usual limits of such assays
[6] = biological target: HLA-A*02:01; experiment: IEDB peptide-MHC binding, purified MHC/competitive/fluorescence; ≥ and ≤ were set here for values at or beyond the usual limits of such assays
[7] = biological target: HLA-A*01:01; experiment: IEDB peptide-MHC binding, purified MHC/competitive/radioactivity; filed as Kd, often an IC50 or EC50 that approximates it; ≥ and ≤ were set here for values at or beyond the usual limits of such assays
[8] = biological target: HLA-A*26:01; experiment: as above
[9] = biological target: HLA-A*03:01; experiment: IEDB peptide-MHC binding, purified MHC/direct/fluorescence; filed as Kd, often an IC50 or EC50 that approximates it; ≥ and ≤ were set here for values at or beyond the usual limits of such assays
[10] = biological target: HLA-A*11:01; experiment: as above
[11] = biological target: HLA-A*31:01; experiment: as above
[12] = biological target: HLA-B*07:02; experiment: as above; conditions: source organism: Orthohantavirus hantanense
[13] = biological target: HLA-B*27:05; experiment: as above; conditions: source organism: Orthohantavirus hantanense
[14] = biological target: HLA-B*18:01; experiment: as above
[15] = biological target: HLA-B*40:01; experiment: as above; conditions: source organism: Mammarenavirus lassaense
[16] = biological target: HLA-A*02:01; experiment: as above
[17] = biological target: HLA-A*69:01; experiment: as above
[18] = biological target: HLA-A*01:01; experiment: as above
[19] = biological target: HLA-B*58:01; experiment: as above; conditions: source organism: Homo sapiens
[20] = biological target: HLA-A*24:02; experiment: IEDB peptide-MHC binding, purified MHC/competitive/radioactivity; filed as Kd, often an IC50 or EC50 that approximates it; ≥ and ≤ were set here for values at or beyond the usual limits of such assays; conditions: source organism: Dengue virus 3 Martinique/1243/1999
[21] = source organism: Dengue virus 3 Martinique/1243/1999
[22] = source organism: Dengue virus 2 Jamaica/1409/1983
[23] = source organism: Vaccinia virus WR
[24] = source organism: Dengue virus 1 Brazil/97-11/1997
[25] = source organism: Orthohantavirus hantanense
[26] = source organism: Dengue virus 4 Philippines/H241/1956
[27] = source organism: Vaccinia virus Copenhagen
[28] = source organism: Escherichia coli
[29] = source organism: Sudan ebolavirus
[30] = source organism: Vibrio vulnificus
[31] = source organism: Entamoeba histolytica HM-1:IMSS
[32] = source organism: Haemophilus influenzae
[33] = source organism: Vaccinia virus

SGVLWDVPSP
Kd [1, 21]: 3670 nM

LPLPWTAGA
Kd ([2]; source organism: Dengue virus 4 Dominica/814669/1981): 2830 nM

RSCTLPPLRY
Kd [3, 22]: 15.5 nM

KVLFLQQSI
Kd [4, 23]: 0.704 nM

IALFLAHAI
Kd [2, 24]: 135 nM

IQGTLAKAY
Kd ([5]; source organism: Rickettsia prowazekii): 215 nM

IMAKNEVFCV
IC50 ([6]; source organism: Hepatitis C virus genotype 1): 5000 nM

RFKKESSLA
Kd [1, 23]: 0.305 nM

SIPATLFVWY
Kd [7, 24]: ≥ 20500 nM
Kd [8, 24]: 128 nM

RLKPVGSAY
Kd [9, 25]: 214 nM
Kd [10, 25]: 3630 nM
Kd [11, 25]: 401 nM
Kd [12]: 676 nM
Kd [5, 25]: 357 nM
Kd [13]: 8420 nM

IGNEEFLDY
Kd [3, 21]: 961 nM

DARVYADPMA
Kd [1, 26]: 9270 nM

MTMNIVNFF
Kd [4, 23]: 1.93 nM

CFKPALPTL
Kd [1, 27]: 72 nM

NETGLELTL
Kd ([14]; source organism: Mammarenavirus lassaense): 16.7 nM
Kd [15]: 19 nM

RILAYGPCL
Kd [16, 28]: 418 nM
Kd [17, 28]: ≥ 20000 nM

KSDLQPPNY
Kd ([18]; source organism: Homo sapiens): 55 nM
Kd ([9]; source organism: Homo sapiens): 18700 nM
Kd ([17]; source organism: Homo sapiens): 1330 nM
Kd [19]: 220 nM

TSLTQKVVIF
Kd [7, 21]: 8960 nM

RIYSDPLAL
Kd [4, 22]: 14100 nM

GVVTKNGGY
Kd [8, 21]: 1210 nM
Kd [3, 21]: ≥ 61300 nM

KTETTILDV
Kd [7, 26]: 6200 nM

PLGVVTNST
IC50 [6, 29]: ≥ 114000 nM

GRLITVNPIV
Kd [1, 22]: ≥ 20400 nM

VFFTFVLLL
Kd [20]: 258 nM

RTNNAELDF
Kd [4, 23]: 131 nM

MQYMTIQQK
Kd [9, 30]: 203 nM
Kd [11, 30]: 346 nM

GMLECGFPT
Kd [16, 31]: 4.8 nM
Kd [17, 31]: ≥ 5000 nM

LAAIANQAV
Kd [2, 21]: 1360 nM

QVDQGIEYY
Kd ([18]; source organism: Mycobacterium tuberculosis): 119 nM

KMEALQRKY
Kd ([3]; source organism: Dengue virus 2 16681-PDK53): 61.4 nM

HTRDPQNAA
Kd [1, 23]: 0.907 nM

KLITFLFVI
Kd [4, 23]: 0.409 nM

IIHDFIDNP
IC50 [6, 29]: ≥ 85400 nM

GTLEFTPID
IC50 [6, 23]: ≥ 132000 nM

LTFNFTPKI
Kd [4, 23]: 110 nM

RAVLDDGIY
Kd [3, 24]: 44.8 nM

KLKIALAKG
Kd [1, 23]: 479 nM

VIMEYHLLF
Kd [4, 27]: ≥ 77800 nM

RFRKKKKVY
Kd ([18]; source organism: Listeria monocytogenes): ≥ 20000 nM

MCFHQHLMY
Kd ([18]; source organism: Homo sapiens): 3330 nM
Kd ([9]; source organism: Homo sapiens): 13600 nM
Kd ([10]; source organism: Homo sapiens): 8410 nM
Kd ([5]; source organism: Homo sapiens): 1440 nM
Kd [19]: 937 nM

AFGLYKSIN
IC50 [6, 23]: ≥ 245000 nM

NAICSAVPSH
Kd [1, 22]: 6440 nM

TFKNPHAKK
Kd [1, 22]: 1460 nM

ALGYTTEEI
Kd [16, 32]: 338 nM
Kd [17, 32]: 7480 nM

TLCDMIKGT
IC50 [6, 33]: 23000 nM

VHSWEDIPY
Kd [3, 26]: 3360 nM

KLKFRFIIR
Kd [1, 23]: 119 nM

KVYINHPFM
Kd [1, 23]: 0.517 nM

QVCIDILRS
IC50 [6, 33]: ≥ 97100 nM

QEKWMTGRM
Kd ([14]; source organism: Yellow fever virus): 3050 nM

DPFPQSNSPI
Kd [2, 26]: 733 nM

APCKVPIEI
Kd [2, 26]: ≥ 77400 nM

EDMLSVWNRV
Kd [4, 24]: ≥ 34400 nM

IVREAIKRK
Kd [1, 24]: 97.7 nM

ETENILTVL
Kd [8, 21]: 2940 nM

— the Immune Epitope Database (IEDB)
